Where only a bound is given, the exact number is not on record here.

The target of this assay is central subunit ND3 of Y. lipolytica complex I (Y. lipolytica) (UniProt Q9B6C7).
Sequence of UniProt Q9B6C7 (Q9B6C7 whole entry, one chain of several): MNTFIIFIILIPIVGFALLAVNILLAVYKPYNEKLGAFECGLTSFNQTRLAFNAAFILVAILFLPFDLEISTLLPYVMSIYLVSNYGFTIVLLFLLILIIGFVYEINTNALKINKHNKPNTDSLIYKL
Take “accessory subunit LYRM6 (NDUFA6) mutant Y43A of Y. lipolytica complex I (natural protein)”: the complex I activity (Q reductase activity), residual rate of the mutant is less than 25%. Next, “accessory subunit LYRM6 (NDUFA6) mutant F89A of Y. lipolytica complex I (natural protein)”: less than 25%. As for “accessory subunit LYRM6 (NDUFA6) mutant L42A of Y. lipolytica complex I (natural protein)”, the complex I activity (Q reductase activity), residual rate of the mutant is less than 25%.
